# Data reported in PMC10928113, “Molecular architecture and platelet-activating properties of small immune complexes assembled on heparin and platelet factor 4” (Communications Biology, 2024).
# Values joined by “and” are separate entries in the source; they are usually repeats but may differ in a detail not shown here. Equal entries are not always repeated.
# B1: KKO monoclonal anti-PF4/heparin antibody (antibody, V domains shown)
# VH: VQLQQSGAELVKPGASVKLSCKASGYTFTNYFIYWVKQRPGQGLEWIGEINPRNGDTDFNEKFESRATLTVDKSSSTAYMQLSSLTSEDSAIYYCTRSPYGNNYGFTYWGQGTLVTVSA
# VL: DIQMIQSQKFMSTSVGDRVTVTCKASQNVGTNVAWYQQKPGQSPNALIYSASYRYSGVPDRFTGSGSGTDFTLTITNVQSEDLADYFCQQYNSYPLTFGTGTKLDLK
# notes: Whole IgG (measured 152.5 kDa); also called KKO mAb; KKO hybridoma clone 31.2.57.A7; source: KKO hybridoma clone 31.2.57.A7 (ATCC), supernatant, purified (Protein A Sepharose)
# B2: recombinant form of human platelet factor 4 (PF4) (natural protein)
# chain: EAEEDGDLQCLCVKTTSQVRPRHITSLEVIKAGPHCPTAQLIATLKNGRKICLDLQAPLYKKIIKKLLES
# notes: platelet factor 4 (PF4), human, recombinant; stands as a tetramer in the complexes; also called recombinant PF4; PF4 tetramer
# Assays:
# [1] = molecular target: T1, recombinant form of human platelet factor 4 (PF4) (human, UniProt P02776); experiment: native MS; highest-MW SEC sub-fraction of PF4/UFH small complexes incubated with a nearly equimolar amount of KKO (antibody excess up to 33% also tested); 150 mM ammonium acetate, pH 6.9; limited charge reduction; details: both partners purified
# T1 construct: platelet factor 4 (PF4), human, recombinant; stands as a tetramer in the complexes; also called recombinant PF4; PF4 tetramer
# [2] = molecular target: T1, recombinant form of human platelet …; experiment: native MS; PF4·dp20 complexes incubated with a nearly equimolar amount of KKO (0.28 mg/mL and 0.06 mg/mL); 150 mM ammonium acetate, pH 6.9; details: both partners purified
# [3] = molecular target: the molecule itself; experiment: native MS; PF4 incubated with UFH, SEC sub-fractions of the small complexes; 150 mM ammonium acetate, pH 6.9; masses by limited charge reduction
Binder,stoichiometry N [1],stoichiometry N [2],stoichiometry N [3]
B1,1 KKO per complex of one heparin chain and two PF4 tetramers and 2 KKO per complex of one heparin chain and three PF4 tetramers,1 PF4 tetramer per KKO and 2 PF4 tetramers per KKO,
B2,,,4 subunits (tetramer)
